In patent US8629107B2, “Genes and proteins associated with angiogenesis and uses thereof” (National Jewish Health, priority 2005, dated 2014):

Experiments:
Format in all cases: cell-based, murine
p38 MAPK = p38 MAPK phosphorylation by immunoblot analyses; conditions: serum-starved MB114 cells expressing the transgene; bFGF 50 ng/ml or EGF 10 ng/ml, 0-15 min
Experimental: (§1) The effect putative angiogenic agents had on MB114 cell activities were determined as follows: (i) cell proliferation using a [^3H]thymidine incorporation assay as described (Albig et al, 2006; Albig and Schiemann, 2004; Albig and Schiemann, 2005); (ii) cell invasion through Matrigel matrices using a modified Boyden-chamber assay as described (Albig et al, 2006; Albig and Schiemann, 2004; Albig and Schiemann, 2005); (iii) p38 MAPK phosphorylation using immunoblot analyses as described (Albig et al, 2006; Albig and Schiemann, 2004; Albig and Schiemann, 2005); (iv) angiogenic sprouting in rat tail collagen matrices as described (Albig et al, 2006; Albig and Schiemann, 2004); and (v) Hes1- and SBE-driven luciferase reporter gene assays as described (Albig et al, 2006; Albig and Schiemann, 2004; Albig and Schiemann, 2005).
The inventors' previous studies have associated stimulation of p38 MAPK activity with angiogenesis of MB114 cells and, conversely, inhibition of p38 MAPK activity with angiostasis of MB114 cells (Albig et al, 2006; Albig and Schiemann, 2004; Albig and Schiemann, 2005). […] The phosphorylation status of p38 MAPK was determined by immunoblotting whole cell lysates with phospho-specific p38 MAPK antibodies (p38-P). Differences in protein loading were monitored by reprobing stripped membranes with anti-p38 MAPK polyclonal antibodies (p38).

MB114 cells = experiment: cell invasion through Matrigel matrices, modified Boyden-chamber assay; conditions: MB114 cells stably expressing the transgene vs GFP; 48 h
Experimental: as §1
FIG. 1A show results from an experiment in which serum-starved MB114 cells, stably expressing either GFP or various putative angiogenic agents, were stimulated in the absence or presence of either bFGF (50 ng/ml) or EGF (10 ng/ml) for 24 h at 37° C. Differences in MB114 cell DNA synthesis was determined by measuring [^3H]thymidine incorporation into cellular DNA. […] In this experiment, invasion of MB114 cells expressing either GFP or various putative angiogenic agents through synthetic basement membranes was determined over 48 h using a modified Boyden-chamber assay.

[1] = system: Smad2/3-binding element (SBE); experiment: SBE-driven luciferase reporter gene assay in MB114 cells; conditions: MAGP-2-expressing vs GFP-expressing MB114 cells; TGF-β1 0-5 ng/ml overnight
Experimental: as §1
To further investigate the impact of MAGP-2 on Notch1 processing and NICD accumulation, the inventors took advantage of recent findings showing that the ability of TGF-β to induce Hes1 promoter activity requires Smad3 to interact physically with NICD (Blokzijl et al, 2003), a reaction that is dispensable for canonical Smad3-mediated signaling stimulated by TGF-β (Blokzijl et al, 2003). […]

B1: MAGP-2: secreted glycoprotein (25 kDa); stably expressed in MB114 cells by bicistronic retroviral transduction, Myc-His tagged (protein)
chain: QRGDDVPETFTDDPNLVNDPSTDDTALADITPSTDDLAGDKNATAECRDEKFACTRLYSVHRPVRQCVHQSCFTSLRRMYIINNEICSRLVCKEHEAMKDELCRQMAGLPPRRLRRSNYFRLPPCENMNLQRPDGL
modifications: left off: small tags and cut ends
notes: secreted glycoprotein (25 kDa); stably expressed in MB114 cells by bicistronic retroviral transduction, Myc-His tagged
p38 MAPK phosphorylation (p38 MAPK): significantly enhanced
MB114 cell invasion through synthetic basement membranes (MB114 cells): significantly induced
TGF-β stimulation of SBE-luciferase activity [1]: no effect
